The test concerns the target human uPAR on 293/uPAR cells (human) (UniProt Q03405). Put plainly: cell-based or functional assay.

The values that follow come from US20130280162A1.

Chain of human uPAR on 293/uPAR cells (human) (Q03405 23-305): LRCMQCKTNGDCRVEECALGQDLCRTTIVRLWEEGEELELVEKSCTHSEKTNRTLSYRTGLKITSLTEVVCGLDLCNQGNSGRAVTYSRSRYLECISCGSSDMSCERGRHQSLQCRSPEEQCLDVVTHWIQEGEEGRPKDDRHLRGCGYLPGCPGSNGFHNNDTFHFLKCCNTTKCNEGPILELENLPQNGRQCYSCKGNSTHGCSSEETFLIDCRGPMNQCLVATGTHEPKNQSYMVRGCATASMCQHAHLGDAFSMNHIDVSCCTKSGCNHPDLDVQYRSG

B1: GFD-SMB/mFc (disulphide-linked homodimer) (Fc fusion)
chain: SNELHQVPSNCDCLNGGTCVSNKYFSNIHWCNCPKKFGGQHCEIDKSKTGGGGSGGGGSGGGGQESCKGRCTEGFNVDKKCQCDELCSYYQSCCTDYTAECKPGSGLEAGAGPRDCGCKPCICTVPEVSSVFIFPPKPKDVLTITLTPKVTCVVVDISKDDPEVQFSWFVDDVEVHTAQTKPREEQFNSTFRSVSELPIMHQDWLNGKEFKCRVNSAAFPAPIEKTISKTKGRPKAPQVYTIPPPKEQMAKDKVSLTCMITDFFPEDITVEWQWNGQPAENYKNTQPIMDTDGSYFVYSKLNVQKSNWEAGNTFTCSVLHEGLHNHHTEKSLSHSPGK
In the case of B1, the IC50, inhibition of 293/uPAR cell adhesion to VN (RTCA impedance, 1 h after addition) was 20 nM and the maximal inhibition of 293/uPAR cell adhesion to VN was found to be 60%.

B2: SMB-GFD/mFc (disulphide-linked homodimer) (Fc fusion)
chain: DQESCKGRCTEGFNVDKKCQCDELCSYYQSCCTDYTAECKPGGGGSGGGGSGGGGPSNCDCLNGGTCVSNKYFSNIHWCNCPKKFGGQHCEIDKSKGSGLEAGAGPRDCGCKPCICTVPEVSSVFIFPPKPKDVLTITLTPKVTCVVVDISKDDPEVQFSWFVDDVEVHTAQTKPREEQFNSTFRSVSELPIMHQDWLNGKEFKCRVNSAAFPAPIEKTISKTKGRPKAPQVYTIPPPKEQMAKDKVSLTCMITDFFPEDITVEWQWNGQPAENYKNTQPIMDTDGSYFVYSKLNVQKSNWEAGNTFTCSVLHEGLHNHHTEKSLSHSPGK
As to B2, the IC50, inhibition of 293/uPAR cell adhesion to VN (RTCA impedance, 1 h after addition) was found to be 6.3 nM and the maximal inhibition of 293/uPAR cell adhesion to VN is 60%.
